Laboratory results published in patent publication EP0672680A1.
Square brackets hold non-standard residues; d marks the D form.

B1: compound (j) (H-Phe-Gly-Gly-D-Arg-Ile-Asp-D-Arg-Ile-NH2) (peptide)
peptide: H-FGG[dR]ID[dR]I-NH2
SMILES: CC[C@H](C)[C@H](NC(=O)[C@@H](CCCNC(=N)N)NC(=O)[C@H](CC(=O)O)NC(=O)[C@@H](NC(=O)[C@@H](CCCNC(=N)N)NC(=O)CNC(=O)CNC(=O)[C@@H](N)Cc1ccccc1)[C@@H](C)CC)C(N)=O
B2: compound (i) (H-Phe-Gly-Gly-D-Arg-Ile-Asp-Arg-Ile-NH2) (peptide)
peptide: H-FGG[dR]IDRI-NH2
SMILES: CC[C@H](C)[C@H](NC(=O)[C@H](CCCNC(=N)N)NC(=O)[C@H](CC(=O)O)NC(=O)[C@@H](NC(=O)[C@@H](CCCNC(=N)N)NC(=O)CNC(=O)CNC(=O)[C@@H](N)Cc1ccccc1)[C@@H](C)CC)C(N)=O

Target: bovine lung-derived ANP receptor (bovine)
Sequence (P10730 42-537): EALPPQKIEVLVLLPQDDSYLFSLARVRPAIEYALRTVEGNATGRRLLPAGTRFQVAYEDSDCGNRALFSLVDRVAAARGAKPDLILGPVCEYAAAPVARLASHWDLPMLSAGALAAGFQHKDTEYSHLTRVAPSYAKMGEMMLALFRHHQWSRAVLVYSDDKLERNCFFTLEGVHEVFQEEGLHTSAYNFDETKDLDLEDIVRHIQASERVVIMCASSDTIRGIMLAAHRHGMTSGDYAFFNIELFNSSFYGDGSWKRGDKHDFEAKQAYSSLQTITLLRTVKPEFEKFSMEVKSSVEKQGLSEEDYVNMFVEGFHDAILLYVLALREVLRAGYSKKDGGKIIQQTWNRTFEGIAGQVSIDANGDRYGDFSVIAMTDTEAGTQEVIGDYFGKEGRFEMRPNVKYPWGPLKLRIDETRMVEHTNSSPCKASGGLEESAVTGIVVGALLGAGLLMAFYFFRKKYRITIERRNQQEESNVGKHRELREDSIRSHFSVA
Test: competition radioligand binding: displacement of 125I-rat ANP from bovine lung membrane fraction, filter assay

| Binder | IC50 |
| --- | --- |
| B1 | 5.4 µM |
| B2 | 0.21 µM |
